This is an account of results in US20190161555A1 (ALLIGATOR BIOSCIENCE, published 2019).

First the molecules themselves.
B1: 1168/1135 (antibody, V domains shown)
VH: EVQLLESGGGLVQPGGSLRLSCAASGFTFSGSSMSWVRQAPGKGLEWVSSISYYGGYTYYADSVKGRFTISRDNSKNTLYLQMNSLRAEDTAVYYCARYFPHYYFDYWGQGTLVTVSS
VL: not shown
notes: OX40 antibody, tested as IgG
B2: 1542/1135 (antibody, V domains shown)
VH: EVQLLESGGGLVQPGGSLRLSCAASGFTFGSSSMYWVRQAPGKGLEWVSGIGYYSYSTSYADSVKGRFTISRDNSKNTLYLQMNSLRAEDTAVYYCARGYPHHYFDYWGQGTLVTVSS
VL: not shown
notes: OX40 antibody, tested as IgG
B3: 1526/1527 (antibody, V domains shown)
VH: EVQLLESGGGLVQPGGSLRLSCAASGFTFSGYSMYWVRQAPGKGLEWVSGIGYSGYGTYYADSVKGRFTISRDNSKNTLYLQMNSLRAEDTAVYYCARYYFHDYAAYSLDYWGQGTLVTVSS
VL: DIQMTQSPSSLSASVGDRVTITCRASQSISSYLNWYQQKPGKAPKLLIYAASSLQSGVPSRFSGSGSGTDFTLTISSLQPEDFATYYCQQYGSDSLLTFGQGTKLEIK
notes: OX40 antibody, tested as IgG
B4: 1482/1483 (antibody, V domains shown)
VH: EVQLLESGGGLVQPGGSLRLSCAASGFTFSSYAMSWVRQAPGKGLEWVSYISYYSGYTYYADSVKGRFTISRDNSKNTLYLQMNSLRAEDTAVYYCARGYGYLDYWGQGTLVTVSS
VL: DIQMTQSPSSLSASVGDRVTITCRASQSISSYLNWYQQKPGKAPKLLIYAASSLQSGVPSRFSGSGSGTDFTLTISSLQPEDFATYYCQQYGSLLTFGQGTKLEIK
notes: OX40 antibody, tested as IgG
B5: 1490/1135 (antibody, V domains shown)
VH: B1 VH with G31S, S32Y, S33A, S50G, F100Y, Y103H, F105I
VL: not shown
notes: OX40 antibody, tested as IgG
B6: 1170/1171 (antibody, V domains shown)
VH: EVQLLESGGGLVQPGGSLRLSCAASGFTFGGYYMSWVRQAPGKGLEWVSYIPGSGGSTYYADSVKGRFTISRDNSKNTLYLQMNSLRAEDTAVYYCARYDYYWMDYWGQGTLVTVSS
VL: B3 VL with Y91G, G92H, S93G, D94S, S95Y, L96P, L97H
notes: OX40 antibody, tested as IgG
B7: 1514/1515 (antibody, V domains shown)
VH: EVQLLESGGGLVQPGGSLRLSCAASGFTFGYYYMSWVRQAPGKGLEWVSGISSYGSYTYYADSVKGRFTISRDNSKNTLYLQMNSLRAEDTAVYYCARSGYSNWANSFDYWGQGTLVTVSS
VL: DIQMTQSPSSLSASVGDRVTITCRASQSISSYLNWYQQKPGKAPKLLIYAASSLQSGVPSRFSGSGSGTDFTLTISSLQPEDFATYYCQQGDYTLFTFGQGTKLEIK
notes: OX40 antibody, tested as IgG

Where a chain is given by its changes, count along the chain named. Bounds are passed on as bounds.

Sequence of CD137 (R&D Systems) (Q07011 24-186 limits assumed): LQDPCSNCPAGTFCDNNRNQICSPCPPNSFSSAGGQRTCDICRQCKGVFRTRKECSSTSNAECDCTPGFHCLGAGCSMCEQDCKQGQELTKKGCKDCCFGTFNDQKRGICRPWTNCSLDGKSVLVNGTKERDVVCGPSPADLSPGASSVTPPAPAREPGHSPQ
Sequence of CD40 (Ancell) (P25942 21-193 limits assumed): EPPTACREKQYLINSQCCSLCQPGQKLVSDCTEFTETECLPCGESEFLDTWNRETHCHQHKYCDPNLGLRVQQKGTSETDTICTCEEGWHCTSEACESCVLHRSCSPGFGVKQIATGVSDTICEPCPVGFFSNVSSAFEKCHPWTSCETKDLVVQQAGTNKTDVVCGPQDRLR

The first test concerns the target T1, Human OX40 (R&D Systems, 3388-OX) (human, UniProt P43489 29-216).
T1 construct: bought; also called OX40-Fc; Human OX40 (R&D systems, #3358_OX)
T1 sequence (looked up): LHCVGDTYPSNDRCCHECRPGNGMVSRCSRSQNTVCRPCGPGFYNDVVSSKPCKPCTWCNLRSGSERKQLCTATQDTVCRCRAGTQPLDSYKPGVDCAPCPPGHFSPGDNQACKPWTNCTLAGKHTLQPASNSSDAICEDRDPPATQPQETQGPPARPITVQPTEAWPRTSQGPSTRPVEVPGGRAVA
Kind of test: ELISA, plates coated with human OX40, IgG. How it is done: (§1) ELISA plates were coated with human OX40 (R&D Systems, 3388-OX), CD40 (Ancell), or CD137 (R&D Systems) at 0.1 or 0.5 μg/ml. The ELISA plates were washed with PBST and then blocked with PBST+2% BSA for 1 h at room temperature and then washed again with PBST. The antibodies were added in dilution series to the ELISA plates for 1 h at room temperature and then washed with PBST. Binding was detected using goat anti human kappa light chain HRP, incubated for 1 h at room temperature. SuperSignal Pico Luminescent was used as substrate and luminescence was measured using Fluostar Optima.
(An ELISA detects its analyte on a solid surface through an enzyme-linked reagent.)
One may read the EC50 as the concentration needed to bring the measured effect to its halfway point. A high value points to lower potency in that assay. In turn, B1 displayed an EC50 below 1 nM.
Molecule B2 registered an EC50 below 1 nM.
The same measure, in the same setting: next, B3: below 1 nM.
The same measure, in the same setting: next, B4: below 1 nM.

A further test concerns the target CD40 (Ancell) (UniProt P25942 21-193, limits assumed). Briefly: ELISA, CD40 coated. How it is done: as §1
B1: the binding result is listed as “no binding”.
For the molecule B5, the binding result was “no binding”.
The same measure, in the same setting: in the case of B2 it was “no binding”; in that of B6, “no binding”.
Still for that read-out and setting: next, B3: “no binding”.
On the same count and under the same terms, next, B7: “no binding”; B4: “no binding”.

Another test has as its target T2, murine OX40 (murine, UniProt P47741 20-211, limits assumed).
T2 construct: also called mouse OX40
T2 sequence (looked up): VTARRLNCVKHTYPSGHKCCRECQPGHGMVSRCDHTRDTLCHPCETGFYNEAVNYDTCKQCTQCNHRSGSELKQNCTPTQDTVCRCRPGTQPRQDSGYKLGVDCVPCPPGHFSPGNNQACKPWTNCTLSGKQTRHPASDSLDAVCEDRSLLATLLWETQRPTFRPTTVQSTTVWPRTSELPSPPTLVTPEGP
Kind of test: ELISA.
On to B1, for which the binding result was “no binding”.
The same measure, in the same setting: in the case of B5 it was “no binding”; in that of B2, “no binding”.
For B6, the binding result is given as “no binding”.
The same measure, in the same setting: next, B3: “no binding”; B7: “no binding”; B4: “no binding”.

Another test concerns the target CD137 (R&D Systems) (UniProt Q07011 24-186, limits assumed). Kind of test: ELISA, CD137 coated. How it is done:
as §1
As to B1, the binding result is recorded as “no binding”.
As for B5, the binding result is on record as “no binding”.
Still for that read-out and setting: next, B2: “no binding”; B6: “no binding”.
As to B3, the binding result was “no binding”.
Turning to B7, the binding result is “no binding”.
On the same count and under the same terms, next, B4: “no binding”.

In the next test the target is T1, Human OX40 (R&D Systems, 3388-OX). Briefly: SPR Biacore, human OX40 amine-coupled on CM5, antibody injected, 1:1 Langmuir. On the procedure: Human OX40 (R&D systems, #3358_OX) was immobilized to the Biacore™ sensor chip, CM5, using conventional amine coupling. The tested antibodies and controls (serially diluted 1/3 or 1/2 100-2 nM) were analyzed for binding in HBS-P (GE, #BR-1003-68) at a flow rate of […]. The association was followed for 3 minutes and the dissociation for 20 minutes. Regeneration was performed twice using 50 mM NaOH for 60 seconds. The kinetic parameters and the affinity constants were calculated using 1:1 Langmuir model with drifting baseline. […] The kinetic parameters and the affinity constants were calculated using BIAevaluation 4.1 software.
One may read the Kd as the equilibrium constant for the complex coming apart. For orientation: koff means the first-order rate constant of dissociation. High values mean fast dissociation, low ones slow dissociation. A word on the kon: it is a measure of how fast the partners come together. Low values mean slower complex formation, high ones faster complex formation. For B1, the equilibrium dissociation constant (Kd) was 0.327 nM, the off-rate (koff) is 0.000169 s⁻¹ and the association rate constant (kon) worked out at 518000 M⁻¹ s⁻¹.
Consider B2, for which binding was put at a Kd of 0.463 nM, the koff came to 0.0001 s⁻¹ and the on-rate constant (kon) was 216000 M⁻¹ s⁻¹.
Taken in the same sequence, the figures for B3 were 0.43 nM, 0.000187 s⁻¹ and 435000 M⁻¹ s⁻¹.
Taken in the same sequence, the figures for B4 were 0.753 nM, 0.000584 s⁻¹ and 776000 M⁻¹ s⁻¹.

The next test has as its target T3, Construct 84: full length OX40 (human, UniProt P43489 29-277).
T3 construct: whole, on cells
T3 sequence (looked up): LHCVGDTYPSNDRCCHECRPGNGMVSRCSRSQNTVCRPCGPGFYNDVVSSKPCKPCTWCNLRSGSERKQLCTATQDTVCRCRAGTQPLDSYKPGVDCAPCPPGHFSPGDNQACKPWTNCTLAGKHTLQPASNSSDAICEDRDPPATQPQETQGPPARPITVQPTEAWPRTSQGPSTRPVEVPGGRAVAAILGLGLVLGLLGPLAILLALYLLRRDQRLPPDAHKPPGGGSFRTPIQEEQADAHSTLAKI
Kind of test: flow cytometry, 293-F cells transfected with the construct. On the procedure: The transfected cells were incubated with human OX40 antibodies, human OX40L (hOX40L, RnD Systems), mouse OX40L (mOX40L, RnD Systems) and controls for 30 min 4° C. and then detected with a-huIgG-PE (Jackson Immunoresearch) 30 min 4° C. Cells were analyzed with FACS Verse (BD Biosciences). Binding to the different chimeric constructs were calculated as relative (mean fluorescence intensity) MFI compared to the binding of the isotype control.
On the technique in general: Flow cytometry measures light scatter and fluorescence of single cells or particles in a stream.
With B1, the “relative MFI” value came out at 29.6 fold over isotype control.
On the same count and under the same terms, in the case of B2 it was 29.4 fold over isotype control.
As for B3, the “relative MFI” value turned out to be 21.4 fold over isotype control.
As for B4, the “relative MFI” value turned out to be 24.9 fold over isotype control.

The target in another test is Macaca mulatta OX40 on HEK cells (Macaca mulatta; human). Briefly: flow cytometry, macOX40-HEK cells; ends of the 95% confidence interval. How it is done:
For the assay, the transfected cells were incubated with the test antibodies and controls for 30 min at 4° C. and then detected with a-huIgG-PE (Jackson Immunoresearch) 30 min 4° C. Cells were analyzed by flow cytometry with FACS Verse (BD Biosciences).
As to B1, the half-maximal effective concentration (EC50) was in the range of 0.0905 to 0.194 µg/mL.
On the same count and under the same terms, next, B2: 0.722 to 1.41 µg/mL; B3: 0.292 to 0.589 µg/mL; B4: 0.157 to 0.312 µg/mL.

In the next test the target is T4, human OX40 overexpressed on CHO cells (human, UniProt P43489 29-214; P25942 194-277).
T4 construct: extracellular domain;domain: transmembrane and intracellular part; also called hOX40; huOX40 (CHO)
T4 sequence (looked up): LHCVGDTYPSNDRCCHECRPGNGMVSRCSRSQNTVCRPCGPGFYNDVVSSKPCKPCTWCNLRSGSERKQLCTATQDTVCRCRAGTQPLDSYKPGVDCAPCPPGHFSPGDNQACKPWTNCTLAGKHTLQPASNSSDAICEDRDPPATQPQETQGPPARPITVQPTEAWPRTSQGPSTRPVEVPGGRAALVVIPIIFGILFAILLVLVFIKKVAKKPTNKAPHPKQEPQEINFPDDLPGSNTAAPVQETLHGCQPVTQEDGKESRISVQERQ
Kind of test: flow cytometry, cells with human OX40; ends of the 95% confidence interval.
B1 had an EC50 of 0.0636 to 0.131 µg/mL.
On the same count and under the same terms, in the case of B2 it was 0.322 to 0.552 µg/mL; in that of B3, 0.172 to 0.429 µg/mL.
Still for that read-out and setting: in the case of B4 it was 0.082 to 0.182 µg/mL.
